Measurements from a protein production outcome set (Wang et al. 2014).

Test: label from the status in PepcDB records

| Sequence | protein production |
| --- | --- |
| MSLRIAIVGAGALGLYYGALLQRSGEDVHFLLRRDYEAIAGNGLKVFSINGDFTLPHVKGYRAPEEIGPMDLVLVGLKTFANSRYEELIRPLVEEGTQILTLQNGLGNEEALATLFGAERIIGGVAFLCSNRGEPGEVHHLGAGRIILGEFLPRDTGRIEELAAMFRQAGVDCRTTDDLKRARWEKLVWNIPFNGLCALLQQPVNLILARDVSRKLVRGIMLEVIAGANAQGLATFIADGYVDDMLEFTDAMGEYKPSMEIDREEGRPLEIAAIFRTPLAYGAREGIAMPRVEMLATLLEQATGEGHHHHHH | not failed |
| RKEDHARLRALNGLLYKALTDLLCTPEVSQELYDLNVELSKVSLTPDFSACRAYWKTTLSAEQNAHMEAVLQRSAAHMRHLLMSQQTLRNVPPIVFVQDKGNAALAELDQLLAVAD | not failed |
| MEMDTMFLAILIGAGLIGISVVTSLISFRVGAPLLLVFLGVGLLAGQDGIGGIVFNDSGTAYFIGSLALAVILFDSGFSTRLQTFRLAAAPSIVLATLGVALTTALVAIPSHSLLGLSWEESALMGAVVGSTDAAAVFFLLRVGGILIRDRVRATLEVESSTNDPMAIFLTITLVELASAGGFSGEALSWGLGLAFVRQMGLGLLCGWIGGHLLVVGINRLRLEPALYPILGLALALFLFAAVSMVDGSGFLAIYVAGMVMGNRKMRGGPALRRFQEALTWLAQMTMFLTLGLFASPSTFIDVALPSVLIGLFLVFVARPVAVWLCLLPFGYDRNETAFVAWVGLRGAVSILLAILPIAAGLEHAQEMFNAAFIVVVTSLLLQGWTIRPMARWLGLVVPPRLGPVDKVELQLPYGGDHELLVYRIAKGSPVAEGERIPRWARPSLVVRDGRSMKVLDSGRPQPGDHVYIFSAPRHGALLDRLFARPTALSPADEAYFGDFSLDASRTMGELATLYGIKVPEGAQDTAVGEWLTQRLGGAPARGDRVVLPPIEIIVREMDNSTDVIRTIGLSLDPGEGRPRRVPMFHNARDIIGSVRDWRAARRRFAAKNS | failed |
| NCKKIGEDSKIIIRQITDNDLELLMAWRSNPLIYKFFYIQKEPLKWEEHYSWWMSRENRVDWIILLRENNTIRKVGSVNVSQLNTDNPEIGILIGEFFLWGKHIGRHSVSLVLKWLKNIGYKKAHARILENNIRSIKLFESLGFKKTKKGRENEWIYEVNL | not failed |
| PEDSARVWQAFSRTLQTGEHVEIDYRYLDPGADDWIHLHVAWRGVRGSSPDTYDVIGITQNVTELVAARDAALAAAETKSQFLANMSHEIRTPMNGVLGVLHLLKTEK | failed |
| SELKPTAPPIFTGRPFVVAWDVPTQDCGPRLKVPLDLNAFDVQASPNEGFVNQNITIFYRDRLGLYPRFDSAGRSVHGGVPQNVSLWAHRKMLQKRVEHYIRTQESAGLAVIDWEDWRPVWVRNWQDKDVYRRLSRQLVASRHPDWPPDRIVKQAQYEFEFAAQQFMLETLRYVKAVRPRHLWGFYLFPDCYNHDYVQNWESYTGRCPDVEVARNDQLAWLWAESTALFPSVYLDETLASSRHGRNFVSFRVQEALRVARTHHANHALPVYVFTRPTYSRRLTGLSEMDLISTIGESAALGAAGVILWGDAGYTTSTETCQYLKDYLTRLLVPYVVNVSWATQYCSRAQCHGHGRCVRRNPSASTFLHLSTNSFRLVPGHAPGEPQLRPVGELSWADIDHLQTHFRCQCYLGWSGEQCQWDHRQAAGGASEAWAGSHLTSLLALAALAFTWTL | failed |
| MMEEVARVVACDNQGWLTVEVELKSTCKSCNSSESCGTSAVAQAFSSKTQQFSIQSERTCEVGELLKLGLPESVILKAAALVYLMPLLGLFLGALSGQFFAGLFQINADLSAIGFAALGAITAWLIGKRKAKQLEVDSQPVILAYLGAGISLEKLPV | failed |
| MQKSDALALDGSAALAEPVPATEIARGIAVLAAPTSLVAFLQAGAQLIETWLAARQGTASLAGWAVVLPFALLLQQMSTGAMGGGVVSAIARALGGGKREEASSLVLHALIIAVTAGLIFAIVLAGFPRSVFGAVAGATAAEAAASYAIWLFGAGAVPAWLANTLASVLRGGGRHALAARVLGGMWVVFPVLSWWLAERVGMGLAGIGAALAAVSWGAALVMAYVVFRGGAGFVPSLRIRPSKALFYRILSIGLVACALASVANLTTILVTAQLRHYGTTTVAAYGISARLEFLMIPLAFGVGSALTALVGRAVGAGDWHTARRTAWVGALLALLIAGTVGAAVGLAPNQFAGLFTQDPNVGAIAARALSWVGPAFGGFGLGMALYFASMGAGRMRWPIAAGLCRIALAAGGGWLLANVAGMGLDGHFLGVALGITSYGLVTAIGVRKGEWSPRH | failed |
| MIWILASLIAGIALRAWSVFILPLAYIIGRRNRDLGLLTYFLYGVLLVREVFVRDLISEEAFVSLGLLVPSVLALREIGEEFRVDVRGLVGLGVMSLGFIYKPALVLGVIITGISSIPWIELSILTLLFLVSYVAREHQELVVVGFVLVMSILLAKPIERREMRVKSGRGF | failed |
| MLVSCAMRLHSGVFPDYAEKLPQEEKMEKEDSFPQRVWQIVAAIPEGYVTTYGDVAKLAGSPRAARQVGGVLKRLPEGSTLPWHRVVNRHGTISLTGPDLQRQRQALLAEGVMVSGSGQIDLQRYRWNY | failed |
| DIRPSKLLTWCQQQTEGYQHVNVTDLTTSWRSGLALCAIIHRFRPELINFDSLNEDDAVENNQLAFDVAEREFGIPPVTTGKEMASAQEPDKLSMVMYLSKFYELFRGTPLRPV | not failed |
| MRPETLAVIQKQLTKIKAAQRNMTDNEVLRSMDEIMFCFENCYTEDETFTHIAQMFPSYVLKIVKSFFQISKAVTDEESREAYLTDAEECASVRRSQARDTSEEAKRSQDTLMGRLILIFMRPETREIIEMQLLPAMKLVKERLEREVEKQSMDEFMFCFENCYTEKETEMHVTRKFPSLKQSDVGIGFQTFIGLIDKESSREAYLKDAEDCANVRRIEARQGEASTSHKCEPNCNKH | failed |
| MTRAKQIILWASLSAMPLIAQASERSDDEIKALVYQAILERPEIILQAVEQLQQAEEAAQAASAHAALTENRDSLFNDPNAPVLGNPEGDVTVVEFFDYNCPYCRRAMAEVQGLVDADPNVRLVYREWPILGEGSDFAARAALAARQQGKYEAFHWALMGMSGKANETGVLRIAREVGLDTEQLQRDMEAPEVTAHIAQSMALAQKLGFNGTPSFVVEDALVPGFVEQSQLQDAVDRARKAAAK | failed |
| MAKAGGITNAVNVGIAVQADWENREFISHISLNVRRLFEFLVQFGKPHSLTYFSVLGFEFN | failed |
| MNSLQILSFVGFTLLVAVITWWKVRKTDTGSQQGYFLAGRSLKAPVIAASLMLTNLSTEQLVGLSGQAYKSGMSVMGWEVTSAVTLIFLALIFLPRYLKRGIATIPDFLEERYDKTTRIIIDFCFLIATGVCFLPIVLYSGALALNSLFHVGESLQISHGAAIWLLVILLGLAGILYAVIGGLRAMAVADSINGIGLVIGGLMVPVFGLIAMGKGSFMQGIEQLTTVHAEKLNSIGGPTDPLPIGAAFTGLILVNTFYWCTNQGIVQRTLASKSLAEGQKGALLTAVLKMLDPLVLVLPGLIAFHLYQDLPKADMAYPTLVNNVLPVPMVGFFGAVLFGAVISTFNGFLNSASTLFSMGIYRRIINQNAEPQQLVTVGRKFGFFIAIVSVLVAPWIANAPQGLYSWMKQLNGIYNVPLVTIIIMGFFFPRIPALAAKVAMGIGIISYITINYLVKFDFHFLYVLACTFCINVVVMLVIGFIKPRATPFTFKDAFAVDMKPWKNVKIASIGILFAMIGVYAGLAEFGGYGTRWLAMISYFIAAVVIVYLIFDSWRHRHDPAVTFTPDGKDSL | failed |
| MWSWDVECDTCAICRVQVMDACLRCQAENKQEDCVVVWGECNHSFHNCCMSLWVKQNNRCPLCQQDWVVQRIGK | not failed |
| DQEPPLYVNENDIFTSPTRIEATLNGLYAAIKNTGTKSLMGGKSYLVFDNRGDDVINISNNLVTLFNTYNMNVGITDAENADTWTYAYLAINKVNTFLQSLEGAREVAGENYDRYVQEAKFVRALAYYYLNNLYPTPYSVNPDAKSVPLRLTAEAGTENNNMPRSTVKQIYEHILSDLENISALDTEVNTYTGVTHATQAAANMLKMRVYMAMNEWDKAITAGELVTGYSLPEDVTLIYKAPYFSQESIFSLPMADTNIPNTQQSLAEYYYDGKIMLIDTKSGIMSKPDYSLATDKRIIAFKGEKDLLMKFTDAKTKLQWVPIFRYAETLLDLAECYANKAGGEATAKSLLKQVRGRSVDAATDPLNIDNLSGDALKEAIYNEKRLEFIGEGIRGIDIMRRGEHFIKVGENETINVGPSDEKYTWPIPQVELLLNKDINK | not failed |
| MENMENDENIVVGPKPFYPIEEGSAGTQLRKYMERYAKLGAIAFTNAVTGVDYSYAEYLEKSCCLGKALQNYGLVVDGRIALCSENCEEFFIPVIAGLFIGVGVAPTNEIYTLRELVHSLGISKPTIVFSSKKGLDKVITVQKTVTTIKTIVILDSKVDYRGYQCLDTFIKRNTPPGFQASSFKTVEVDRKEQVALIMNSSGSTGLPKGVQLTHENTVTRFSHARDPIYGNQVSPGTAVLTVVPFHHGFGMFTTLGYLICGFRVVMLTKFDEETFLKTLQDYKCTSVILVPTLFAILNKSELLNKYDLSNLVEIASGGAPLSKEVGEAVARRFNLPGVRQGYGLTETTSAIIITPEGDDKPGASGKVVPLFKAKVIDLDTKKSLGPNRRGEVCVKGPMLMKGYVNNPEATKELIDEEGWLHTGDIGYYDEEKHFFIVDRLKSLIKYKGYQVPPAELESVLLQHPSIFDAGVAGVPDPVAGELPGAVVVLESGKNMTEKEVMDYVASQVSNAKRLRGGVRFVDEVPKGLTGKIDGRAIREILKKPVAKM | not failed |
| MEIAPSTSRFKLYDQFELLEFPDKYVVKPIESPEEGFSVNRRDGNIKPLDENASSGSPTRVSTIYGVGGTIRLLAGTYLLVITSREEVGNFLGLPIFRVTAMKFLPCNEALRFATAQEKKDETYFRTLLQALETTPGLYFSYETDLTLNLQRRCKLAEGWNRKPMWKQADPRYVWNWHLLEDLIECKLDGFIIPILQGSYQVAELKLKNSPAVVSIMSRRCTRRLGTRMWRRGANLEGDAANFVESEQIVEINGFKFSLLQVRGSIPLLWEQIVDLSYKPRLKINKHEETPKVVQRHFHDLCQRYGEIMAVDLTDQHGDEGALSKAYATEMEKLPDVRYVSFDFHQVCGTTNFDNLGVLYEQIGDEFEKQGYFLVDADENILEEQKGVIRSNCIDCLDRTNVTQSFMGQKSLNLQLQRIGVCDSTECISTFEDDYTKFRTIWAEQGDEVSLQYAGTYALKGDLVRYGKQTMTGAIKDGLSAMSRYYLNNFQDGVRQDALDLISGRYTVGTHSPSQLQPIGSQPSFLPVASALLIGGVTVTSFTIHQAGRNTQQYLASALWAGVTAGVVAMIKANGRHLTSRPRLCHLI | failed |
| MRKTKTEALKTKEHLMLAALETFYRKGIARTSLNEIAQAAGVTRGALYWHFKNKEDLFDALFQRICDDIENCIAQDAEDAEGGSWAVFRHTLLHFFERLQSNDIYYKFHNILFLKCEHTEQNAAVIAIARKHQAIWREKITAVLTEAVENQDLADDLDKETAVIFIKSTLDGLIWRWFSSCERFDLGKTAPRIIGIMMDNLENHPDLRRK | not failed |
| KQLGPHTYLVSGRMEIDDVNERFGLSLPESDDYLTVAGFILNSHQNIPQANEVVEIAPYTFTILRSSSTKIELVKMSIDD | not failed |
| MNTLRYFDFGAARPVLLLIARIAVVLIFIIFGFPKMMGFDGTVQYMASLGAPMPMLAAIIAVVMEVPAAILIVLGFFTRPLAVLFIFYTLGTAVIGHHYWDMTGDAVGPNMINFWKNVSIAGAFLLLAITGPGAISLDRR | failed |
| SSISRANKKKPSMPNVSNDLSQKLYATMEKHKEVFFVIHLHAGPVINTLPPIVDPDPLLSCDLMDGRDAFLTLARDKHWEFSSLRRSKWSTLCMLVELHTQ | failed |
| VTATQLAAKATTLYYLHKQAMTDEVSLLLEQALQLEPYNEAALSLIANDHFISFRFQEAIDTWVLLLDSNDPNLDRVTIIESINKAKKLM | not failed |
